Drawing on paper PMC11993163, this text covers highest NaCl concentration for 1 substance.

Experiment [1] concerns the target PfNPM A3 (residues 1-170, up to A3 acidic tract) (Plasmodium falciparum) (UniProt C0H4U4). In words: pull-down.
In experiment [2] the target is PfNPM A1 (residues 1-110, up to A1 acidic tract) (Plasmodium falciparum) (UniProt C0H4U4). In words: pull-down.

For the substance “assembled H3/H4 tetramer (from UniProt P84233 1-136; P62799 1-103) (complex)”, the highest NaCl concentration at which the complex was stable in experiment [1] and in experiment [2] was 600 mM NaCl throughout.
